B1: variant PD-L2 IgV H15Q Fc fusion (Fc fusion)
chain: LFTVTVPKELYIIEQGSNVTLECNFDTGSHVNLGAITASLQKVENDTSPHRERATLLEEQLPLGKASFHIPQVQVRDEGQYQCIIIYGVAWDYKYLTLKVKA
B2: variant PD-L2 IgV I13V/H15Q/T47A/R76G/V89D Fc fusion (Fc fusion)
chain: B1 chain with I13V, T47A, R76G, V89D
B3: variant PD-L2 IgV H15Q/T47A Fc fusion (Fc fusion)
chain: B1 chain with T47A
B4: variant PD-L2 IgV V89D Fc fusion (Fc fusion)
chain: B1 chain with Q15H, V89D
B5: variant PD-L2 IgV H15Q/N24S/T47A/Q72H/R76G/V89D Fc fusion (Fc fusion)
chain: B1 chain with N24S, T47A, Q72H, R76G, V89D
B6: variant PD-L2 IgV H15Q/Q82R/V89D Fc fusion (Fc fusion)
chain: B1 chain with Q82R, V89D
B7: variant PD-L2 IgV H15Q/V89D Fc fusion (Fc fusion)
chain: B1 chain with V89D
B8: variant PD-L2 IgV N24D Fc fusion (Fc fusion)
chain: B1 chain with Q15H, N24D
B9: variant PD-L2 IgV H15Q/T47A/Q72H/R76G/I86T Fc fusion (Fc fusion)
chain: B1 chain with T47A, Q72H, R76G, I86T
B10: variant PD-L2 IgV H15Q/S67L/R76G/I85F Fc fusion (Fc fusion)
chain: B1 chain with S67L, R76G, I85F
B11: variant PD-L2 IgV E44D Fc fusion (Fc fusion)
chain: B1 chain with Q15H, E44D
B12: variant PD-L2 IgV G28V/Q72H/R76G/I86T Fc fusion (Fc fusion)
chain: B1 chain with Q15H, G28V, Q72H, R76G, I86T
B13: variant PD-L2 IgV H15Q/K65R Fc fusion (Fc fusion)
chain: B1 chain with K65R
B14: variant PD-L2 IgV I13V/H15Q/T37A/E44D/S48C/S67L/Q82R/V89D Fc fusion (Fc fusion)
chain: B1 chain with I13V, T37A, E44D, S48C, S67L, Q82R, V89D
B15: variant PD-L2 IgV S67L/I85F Fc fusion (Fc fusion)
chain: B1 chain with Q15H, S67L, I85F
B16: PD-L1 IgV-Fc I20L/I36T/N45D/I47T (Fc fusion)
chain: FTVTVPKDLYVVEYGSNMTLECKFPVEKQLDLAALTVYWEMEDKDITQFVHGEEDLKVQHSSYRQRARLLKDQLSLGNAALQITDVKLQDAGVYRCMISYGGADYKRITVKVNA
B17: variant CD80 E35D/T41S/M43V/M47I/L70M/A71G (Fc fusion)
chain: VIHVTKEVKEVATLSCGHNVSVEELAQTRIYWQKDKKMVLSMVSGDINIWPEYKNRTIFDITNNLSIVIMGLRPSDEGTYECVVLKYEKDAFKREHLAEVT
B18: variant CD80 E35D/M47L/A71G/L85M/F92Y (Fc fusion)
chain: B17 chain with S41T, V43M, I47L, M70L, L85M, F92Y
B19: variant CD80 E35D/D46E/M47V/N63D/L85Q (Fc fusion)
chain: B17 chain with S41T, V43M, D46E, I47V, N63D, M70L, G71A, L85Q
B20: variant CD80 E35D/D46E/M47V/V68M/D90G/K93E (Fc fusion)
chain: B17 chain with S41T, V43M, D46E, I47V, V68M, M70L, G71A, D90G, K93E
B21: ICOSL ECD-Fc N52S (Fc fusion)
chain: DTQEKEVRAMVGSDVELSCACPEGSRFDLNDVYVYWQTSESKTVVTYHIPQSSSLENVDSRYRNRALMSPAGMLRGDFSLRLFNVTPQDEQKFHCLVLSQSLGFQEVLSVEVTLHVAANFSVPVVSAPHSPSQDELTFTCTSINGYPRPNVYWINKTDNSLLDQALQNDTVFLNMRGLYDVVSVLRIARTPSVNIGCCIENVLLQQNLTVGSQTGNDIGERDKITENPVSTGEKNAAT
B22: ICOSL ECD-Fc F120S/Y152H/N201S (Fc fusion)
chain: B21 chain with S52N, F120S, Y152H, N201S
B23: ICOSL ECD-Fc N52S/Y146C/Y152C (Fc fusion)
chain: B21 chain with Y146C, Y152C
B24: ICOSL ECD-Fc N52D (Fc fusion)
chain: B21 chain with S52D
B25: ICOSL ECD-Fc N52S/Y152H (Fc fusion)
chain: B21 chain with Y152H
B26: ICOSL ECD-Fc N52S/D158G (Fc fusion)
chain: B21 chain with D158G
B27: variant PD-L1 K57R/S99G/R195G Fc fusion (Fc fusion)
chain: FTVTVPKDLYVVEYGSNMTIECKFPVEKQLDLAALIVYWEMEDKNIIQFVHGEEDLRVQHSSYRQRARLLKDQLSLGNAALQITDVKLQDAGVYRCMIGYGGADYKRITVKVNAPYNKINQRILVVDPVTSEHELTCQAEGYPKAEVIWTSSDHQVLSGKTTTTNSKREEKLFNVTSTLRINTTTNEIFYCTFRGLDPEENHTAELVIPELPLAHPPNER
B28: variant PD-L1 I36T/M97L/Q155H/F193S/N201Y Fc fusion (Fc fusion)
chain: B27 chain with I36T, R57K, M97L, G99S, Q155H, F193S, G195R, N201Y
B29: variant PD-L1 I36T/I83T/M97L/K144E/P198T Fc fusion (Fc fusion)
chain: B27 chain with I36T, R57K, I83T, M97L, G99S, K144E, G195R, P198T
B30: variant PD-L1 Y10F/M18V/S99G/Q138R/T203A Fc fusion (Fc fusion)
chain: B27 chain with Y10F, M18V, R57K, Q138R, G195R, T203A
B31: variant PD-L1 N17D/M97L/S99G Fc fusion (Fc fusion)
chain: B27 chain with N17D, R57K, M97L, G195R
B32: variant PD-L2 IgV I13V/E44D/Q82R/V89D Fc fusion (Fc fusion)
chain: B1 chain with I13V, Q15H, E44D, Q82R, V89D

Residue numbers refer to the chain shown, from its start. Names and notes keep the numbering of the source.

We go through 32 molecules from patent US20250163127A1.

Sequence of CTLA-4 (human) (chain, as listed by the source): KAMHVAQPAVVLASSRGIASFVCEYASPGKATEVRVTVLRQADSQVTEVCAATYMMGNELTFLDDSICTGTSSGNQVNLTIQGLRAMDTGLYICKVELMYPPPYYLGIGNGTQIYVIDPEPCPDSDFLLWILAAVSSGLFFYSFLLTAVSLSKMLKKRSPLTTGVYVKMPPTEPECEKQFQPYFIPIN
Sequence of PD-1-Fc (human) (Q15116 25-167 limits assumed): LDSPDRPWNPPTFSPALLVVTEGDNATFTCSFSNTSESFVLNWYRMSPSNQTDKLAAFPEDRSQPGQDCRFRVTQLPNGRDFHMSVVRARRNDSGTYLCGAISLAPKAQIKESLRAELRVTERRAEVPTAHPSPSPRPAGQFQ
Sequence of CD80 (human) (chain, as listed by the source): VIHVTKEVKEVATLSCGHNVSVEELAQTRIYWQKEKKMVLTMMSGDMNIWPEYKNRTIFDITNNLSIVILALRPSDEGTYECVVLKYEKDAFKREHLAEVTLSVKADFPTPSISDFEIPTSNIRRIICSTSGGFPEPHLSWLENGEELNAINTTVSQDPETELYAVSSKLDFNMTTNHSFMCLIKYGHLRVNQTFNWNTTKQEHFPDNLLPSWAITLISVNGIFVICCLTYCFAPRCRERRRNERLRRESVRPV

One experiment addresses human PD-1 (human) (UniProt Q15116).
Assay: not given
For B1, the IFN gamma levels pg/mL (MLR) stood at 1820 pg/mL.

Take B2: the IFN gamma levels pg/mL (MLR) is 1250 pg/mL.

The molecule B3 registered an IFN gamma levels pg/mL (MLR) of 1640 pg/mL.

Consider B4, for which the IFN gamma levels pg/mL (MLR) was 1170 pg/mL.

Take B5: the IFN gamma levels pg/mL (MLR) came out at 1090 pg/mL.

On to B6, for which the IFN gamma levels pg/mL (MLR) amounted to 1080 pg/mL.

For B7, the IFN gamma levels pg/mL (MLR) was determined as 1500 pg/mL.

B8 displayed an IFN gamma levels pg/mL (MLR) of 1980 pg/mL.

B9 gave an IFN gamma levels pg/mL (MLR) of 1600 pg/mL.

Molecule B10 gave an IFN gamma levels pg/mL (MLR) of 1320 pg/mL.

On to B11, for which the IFN gamma levels pg/mL (MLR) was determined as 1500 pg/mL.

B12 displayed an IFN gamma levels pg/mL (MLR) of 1780 pg/mL.

As for B13, the IFN gamma levels pg/mL (MLR) was 1510 pg/mL.

On to B14, for which the IFN gamma levels pg/mL (MLR) was 1750 pg/mL.

For B15, the IFN gamma levels pg/mL (MLR) came to 1280 pg/mL.

For another experiment the target is unchanged. Kind of experiment: flow cytometry, Jurkat/PD-1 cells.
The molecule B16 gave a Fold increase over wildtype PD-L1 IgV-Fc of 0.6 fold and an MFI at 50 nM of 3120.

The target of another experiment is CD28 (human) (UniProt P10747). The experiment can be described thus: flow cytometry, Jurkat cells (CD28).
Regarding B17, the Fold change to WT CD80 turned out to be 0.15 fold and the MFI at 33.3 nM was found to be 2700 MFI.

B18 returned a Fold change to WT CD80 of 0.14 fold and an MFI at 33.3 nM of 2460 MFI.

On to B19, for which the Fold change to WT CD80 stood at 0.07 fold and the MFI at 33.3 nM is 1330 MFI.

In turn, B20 had a Fold change to WT CD80 of 1.5 fold and an MFI at 33.3 nM of 27100 MFI.

The target in the next experiment is CD28, full-length, expressed on transfected cells (Homo sapiens (Human)) (UniProt P10747). Kind of experiment: flow cytometry, cells expressing target.
B21: the MFI came to 162 MFI and the parental ratio was 9 ratio to WT.

On to B22, for which the MFI worked out at 16 MFI and the parental ratio is 0.89 ratio to WT.

For B23, the MFI is 39 MFI and the parental ratio was 2.17 ratio to WT.

With B24, the MFI is 130 MFI and the parental ratio was 7.22 ratio to WT.

Consider B25, for which the MFI came to 68 MFI and the parental ratio is 3.78 ratio to WT.

As to B26, the MFI came out at 39 MFI and the parental ratio is 2.17 ratio to WT.

The next experiment has as its target CTLA-4 (human). The experiment can be described thus: flow cytometry, CHO cells expressing CTLA4.
As for B17, the Fold change to WT CD80 was 1.59 fold and the MFI at 33.3 nM is 249000 MFI.

In turn, B18 displayed a Fold change to WT CD80 of 1.37 fold and an MFI at 33.3 nM of 216000 MFI.

The molecule B19 had a Fold change to WT CD80 of 1.74 fold and an MFI at 33.3 nM of 274000 MFI.

On to B20, for which the Fold change to WT CD80 came to 1.74 fold and the MFI at 33.3 nM stood at 273000 MFI.

For another experiment, the target named is PD-L1 (human). The experiment can be described thus: flow cytometry, CHO cells expressing PD-L1.
Sequence of PD-L1 (human) (chain, as listed by the source): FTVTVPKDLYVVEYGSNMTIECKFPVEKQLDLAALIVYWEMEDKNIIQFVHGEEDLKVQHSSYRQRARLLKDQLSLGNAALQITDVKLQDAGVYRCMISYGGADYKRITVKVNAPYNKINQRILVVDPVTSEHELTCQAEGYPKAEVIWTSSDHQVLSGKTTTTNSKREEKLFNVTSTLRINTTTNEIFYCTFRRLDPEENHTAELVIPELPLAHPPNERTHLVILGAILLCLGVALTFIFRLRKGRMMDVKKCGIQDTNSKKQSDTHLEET
As to B17, the Fold change to WT CD80 was 1.09 fold and the MFI at 33.3 nM came to 13000 MFI.

As to B18, the Fold change to WT CD80 amounted to 3.93 fold and the MFI at 33.3 nM is 46700 MFI.

Consider B19, for which the Fold change to WT CD80 stood at 5.88 fold and the MFI at 33.3 nM is 69800 MFI.

In turn, B20 displayed a Fold change to WT CD80 of 6.06 fold and an MFI at 33.3 nM of 71900 MFI.

The next experiment concerns the target CD80 (human). The experiment can be described thus: flow cytometry, cells expressing CD80, 20 nM.
Regarding B27, the MFI at 20 nM amounted to 11000 MFI.

The molecule B28 gave an MFI at 20 nM of 1250 MFI.

In the next experiment the target is human PD-1 (human) (UniProt Q15116). Kind of experiment: flow cytometry, cells expressing PD-1, 20 nM.
Sequence of human PD-1 (human) (Q15116 25-288): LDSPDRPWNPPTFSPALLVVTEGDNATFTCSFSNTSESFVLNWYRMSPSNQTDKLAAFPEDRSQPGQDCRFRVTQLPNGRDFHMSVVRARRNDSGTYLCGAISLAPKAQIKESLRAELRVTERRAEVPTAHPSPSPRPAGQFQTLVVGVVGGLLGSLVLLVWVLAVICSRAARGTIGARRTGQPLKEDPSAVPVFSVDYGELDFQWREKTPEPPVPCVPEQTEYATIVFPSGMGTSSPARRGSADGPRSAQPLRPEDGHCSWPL
In the case of B29, the MFI at 20 nM turned out to be 62 MFI.

B30 showed an MFI at 20 nM of 70 MFI.

Take B31: the MFI at 20 nM is 10100 MFI.

Substrate in a further experiment: ICOS as used in the OD read-out of Table E15A (Homo sapiens (Human)) (UniProt Q9Y6W8)
The experiment can be described thus: OD read-out, format not told.
B21: the OD was found to be 1.33 OD and the parental ratio was 1.55 ratio to WT.

On to B22, for which the OD came to 0.63 OD and the parental ratio was 0.73 ratio to WT.

For B23, the OD is 1.26 OD and the parental ratio was 1.47 ratio to WT.

Turning to B24, the OD was 1.59 OD and the parental ratio was 1.85 ratio to WT.

B25: the OD came to 0.85 OD and the parental ratio was 0.99 ratio to WT.

Turning to B26, the OD is 1.33 OD and the parental ratio was 1.55 ratio to WT.

Another experiment has as its target PD-1-Fc (human) (UniProt Q15116). The experiment can be described thus: ForteBio Octet, PD-1 on anti-human capture sensor, 100 nM.
As to B1, the Fortebio Response Units (Response Units) is 0.007.

B2 yielded a Fortebio Response Units (Response Units) of 1.6.

The molecule B3 yielded a Fortebio Response Units (Response Units) of 0.016.

Turning to B4, the Fortebio Response Units (Response Units) was 0.005.

B5: the Fortebio Response Units (Response Units) was 0.4.

In turn, B6 came in with a Fortebio Response Units (Response Units) of 1.2.

Regarding B7, the Fortebio Response Units (Response Units) came out at 0.31.

Turning to B8, the Fortebio Response Units (Response Units) was -0.039.

For the molecule B9, the Fortebio Response Units (Response Units) is 0.512.

The molecule B10 returned a Fortebio Response Units (Response Units) of 0.025.

Turning to B11, the Fortebio Response Units (Response Units) was -0.006.

Turning to B12, the Fortebio Response Units (Response Units) was 0.003.

As to B13, the Fortebio Response Units (Response Units) was -0.001.

As to B14, the Fortebio Response Units (Response Units) came out at 1.25.

Turning to B15, the Fortebio Response Units (Response Units) is -0.005.

For B32, the Fortebio Response Units (Response Units) was 1.28.
